Measurements as given in patent publication US20120316071A1 (published 2012).

Experiments:
[1] = target: T1, Recombinant Human DLL4 (R&D Systems Cat#1506-D4/CF) (human, UniProt Q9NR61 27-524); test: ECL multispot (MSD) assay, spotted antigen; Fab 200.00 (head prints uM)
T1 construct: Bought recombinant protein; also called delta-like protein 4

[2] = target: T2, rHuman IGF-1 sR, CF (R&D Systems Cat#391-GR) (human, UniProt P08069 31-932); test: as above
T2 construct: Bought soluble receptor; The column head prints only 'IGF-1'; also called insulin-like growth factor-1 soluble receptor

[3] = target: T3, rHuman EGF R/Fc Chimera, CF (R&D Systems Cat#344-ER) (human, UniProt P00533 25-645); test: as above
T3 construct: Bought recombinant protein; Fc part of the bought chimera not given

[4] = target: T4, rHuman CD44/Fc Chimera, CF (R&D Systems Cat#3660-CD) (human, UniProt P16070 21-220); test: as above
T4 construct: Bought recombinant protein; Fc part of the bought chimera not given

[5] = target: T5, rHuman ErbB2/Fc Chimera, CF (R&D Systems Cat#1129-ER) (human, UniProt P04626 23-652); test: as above
T5 construct: Bought recombinant protein; Fc part of the bought chimera not given

[6] = target: T6, rHuman Notch-1/Fc Chimera, CF (R&D Systems Cat#3647-TK) (human, UniProt P46531 19-526); test: as above
T6 construct: Bought recombinant protein; Fc part of the bought chimera not given

[7] = target: T7, rHuman Erythropoietin R/Fc Chimera, CF (R&D Systems Cat#963-ER) (human, UniProt P19235 25-250); test: as above
T7 construct: Bought recombinant protein; also called EPO R; EPO R/Fc; Fc part of the bought chimera not given
T7 sequence (looked up): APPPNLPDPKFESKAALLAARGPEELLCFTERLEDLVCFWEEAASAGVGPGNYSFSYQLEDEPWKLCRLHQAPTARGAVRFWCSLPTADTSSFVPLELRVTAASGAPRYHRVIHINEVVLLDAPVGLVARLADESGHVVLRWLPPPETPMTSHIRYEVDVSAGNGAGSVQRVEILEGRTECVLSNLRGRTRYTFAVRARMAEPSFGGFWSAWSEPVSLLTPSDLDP

[8] = target: T1, Recombinant Human DLL4 (R&D Systems …); test: ECL multispot (MSD) assay, spotted antigen; Fab 20.00 (head prints uM)
[9] = target: T2, rHuman IGF-1 sR, CF (R&D Systems …); test: as above
[10] = target: T3, rHuman EGF R/Fc Chimera, CF (R&D …); test: as above
[11] = target: T4, rHuman CD44/Fc Chimera, CF (R&D Systems …); test: as above
[12] = target: T5, rHuman ErbB2/Fc Chimera, CF (R&D …); test: as above
[13] = target: T6, rHuman Notch-1/Fc Chimera, CF (R&D …); test: as above
[14] = target: T7, rHuman Erythropoietin R/Fc Chimera, CF …; test: as above
[15] = target: T1, Recombinant Human DLL4 (R&D Systems …); test: ECL multispot (MSD) assay, spotted antigen; Fab 0.20 (head prints uM)
[16] = target: T2, rHuman IGF-1 sR, CF (R&D Systems …); test: as above
[17] = target: T3, rHuman EGF R/Fc Chimera, CF (R&D …); test: as above
[18] = target: T4, rHuman CD44/Fc Chimera, CF (R&D Systems …); test: as above
[19] = target: T5, rHuman ErbB2/Fc Chimera, CF (R&D …); test: as above
[20] = target: T6, rHuman Notch-1/Fc Chimera, CF (R&D …); test: as above
[21] = target: T7, rHuman Erythropoietin R/Fc Chimera, CF …; test: as above
[22] = target: T1, Recombinant Human DLL4 (R&D Systems …); test: ECL multispot (MSD) assay, spotted antigen; Fab 2.00 (head prints uM)
[23] = target: T2, rHuman IGF-1 sR, CF (R&D Systems …); test: as above
[24] = target: T3, rHuman EGF R/Fc Chimera, CF (R&D …); test: as above
[25] = target: T4, rHuman CD44/Fc Chimera, CF (R&D Systems …); test: as above
[26] = target: T5, rHuman ErbB2/Fc Chimera, CF (R&D …); test: as above
[27] = target: T6, rHuman Notch-1/Fc Chimera, CF (R&D …); test: as above
[28] = target: T7, rHuman Erythropoietin R/Fc Chimera, CF …; test: as above
[29] = target: T8, rHuman Erythropoietin R/Fc Chimera, CF (R&D Systems Cat#963-ER) (human, UniProt P19235 25-250); test: MSD Multispot ECL, antigen spotted on plate, Fab in solution; blank spot of the row 240
T8 construct: Bought recombinant Fc chimera; also called EPO R; EPO R/Fc; Fc part of the bought chimera not given
T8 sequence (looked up): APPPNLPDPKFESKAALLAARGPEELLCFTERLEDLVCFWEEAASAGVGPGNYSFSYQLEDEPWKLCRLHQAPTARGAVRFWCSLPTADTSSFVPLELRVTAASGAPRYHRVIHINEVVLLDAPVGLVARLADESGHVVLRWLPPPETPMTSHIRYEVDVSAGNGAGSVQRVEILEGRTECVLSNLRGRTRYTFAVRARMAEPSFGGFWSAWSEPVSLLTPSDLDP

[30] = target: T9, rHuman EGF R/Fc Chimera, CF (R&D Systems Cat#344-ER) (human, UniProt P00533 25-645); test: as above
T9 construct: Bought recombinant Fc chimera; also called epidermal growth factor receptor; Fc part of the bought chimera not given

[31] = target: T10, rHuman Notch-1/Fc Chimera, CF (R&D Systems Cat#3647-TK) (human, UniProt P46531 19-526); test: as above
T10 construct: Bought recombinant Fc chimera; Fc part of the bought chimera not given

[32] = target: T11, rHuman P-Cadherin/Fc Chimera, CF (R&D Systems Cat#861-PC) (human, UniProt P22223 108-654); test: as above
T11 construct: Bought recombinant Fc chimera; Fc part of the bought chimera not given

[33] = target: T12, rHuman HGF R/c-MET/Fc Chimera, CF (R&D Systems Cat#358-MT/CF) (human, UniProt P08581 25-932); test: as above
T12 construct: Bought recombinant Fc chimera; also called HGF R/Fc; hepatocyte growth factor receptor; Fc part of the bought chimera not given
T12 sequence (P08581 25-932, change not shown): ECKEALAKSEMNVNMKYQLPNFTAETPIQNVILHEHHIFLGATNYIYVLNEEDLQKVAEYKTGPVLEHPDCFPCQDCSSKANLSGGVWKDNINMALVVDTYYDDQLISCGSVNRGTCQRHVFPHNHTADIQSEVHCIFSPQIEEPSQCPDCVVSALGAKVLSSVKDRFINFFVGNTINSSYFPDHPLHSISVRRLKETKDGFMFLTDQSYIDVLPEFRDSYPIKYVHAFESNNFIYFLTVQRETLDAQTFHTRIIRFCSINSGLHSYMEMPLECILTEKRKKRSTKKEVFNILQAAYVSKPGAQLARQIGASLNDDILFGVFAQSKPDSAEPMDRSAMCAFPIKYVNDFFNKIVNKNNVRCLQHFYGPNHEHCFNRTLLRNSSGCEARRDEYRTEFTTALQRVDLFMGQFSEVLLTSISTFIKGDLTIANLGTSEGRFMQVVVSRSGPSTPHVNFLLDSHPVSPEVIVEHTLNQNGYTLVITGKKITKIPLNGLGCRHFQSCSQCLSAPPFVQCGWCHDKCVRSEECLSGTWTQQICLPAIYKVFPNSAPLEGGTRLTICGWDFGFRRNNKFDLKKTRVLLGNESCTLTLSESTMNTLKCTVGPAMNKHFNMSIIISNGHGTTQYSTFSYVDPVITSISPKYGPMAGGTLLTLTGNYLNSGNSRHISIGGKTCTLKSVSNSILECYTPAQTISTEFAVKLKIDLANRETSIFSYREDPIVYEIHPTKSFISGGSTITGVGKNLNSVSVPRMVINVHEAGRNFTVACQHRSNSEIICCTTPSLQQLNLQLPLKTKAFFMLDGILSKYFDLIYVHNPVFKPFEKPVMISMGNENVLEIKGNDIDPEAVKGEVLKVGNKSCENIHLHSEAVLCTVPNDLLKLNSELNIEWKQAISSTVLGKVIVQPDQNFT

[34] = target: T13, Recombinant Human DLL4 (delta-like protein 4) (human, UniProt Q9NR61 27-524); test: ELISA, Fab on coated recombinant human DLL4, signal minus noise
T13 construct: Bought recombinant human DLL4 (R&D Systems Cat#1506-D4/CF); also called rHuman DLL4; Delta-like 4

[35] = target: T13, Recombinant Human DLL4 (delta-like …); test: ECL (MSD electrochemiluminescence) binding assay, Fab on immobilised recombinant human DLL4

B1: Fab VH5-51_IGHD5-18*01>3_IGHJ4*01 & V3-4_IGLJ1*01 (Fab, V domains shown)
VH: EVQLVQSGAEVKKPGESLKISCKGSGYSFTSYWIGWVRQMPGKGLEWMGIIYPGDSDTRYSPSFQGQVTISADKSISTAYLQWSSLKASDTAMYYCARRGYSYGYDYFDYWGQGTLVTVSS
VL: QTVVTQEPSFSVSPGGTVTLTCGLSSGSVSTSYYPSWYQQTPGQAPRTLIYSTNTRSSGVPDRFSGSILGNKAALTITGAQADDESDYYCVLYMGSGISYVFGTGTKVTVL
notes: Tested as a Fab made in E. coli; The heavy chain vector (Plasmid A) adds CH1 with His6 and Flag tags, and the lambda light chain vector (Plasmid E) adds CL; also called Wt; wildtype
B1 gave an ECL signal/noise ratio [1] of 36.3, an ECL signal/noise ratio [2] of 2.8 and an ECL signal/noise ratio [3] of 2.9. It also gave an ECL signal/noise ratio [4] of 1.6, an ECL signal/noise ratio [5] of 3.1 and an ECL signal/noise ratio [6] of 1.3. The ECL signal/noise ratio [7] was 2.2, the ECL signal/noise ratio [8] was 21.1 and the ECL signal/noise ratio [9] was 1.8. It also gave an ECL signal/noise ratio [10] of 2.5, an ECL signal/noise ratio [11] of 2.6 and an ECL signal/noise ratio [12] of 4.4. The ECL signal/noise ratio [13] was 1.6, the ECL signal/noise ratio [14] was 2 and the ECL signal/noise ratio [15] was 3. The ECL signal/noise ratio [16] was 2.9, the ECL signal/noise ratio [17] was 3.4 and the ECL signal/noise ratio [18] was 1.4. The ECL signal/noise ratio [19] was 2.6, the ECL signal/noise ratio [20] was 1.7 and the ECL signal/noise ratio [21] was 2.5. It also gave an ECL signal/noise ratio [22] of 2.2, an ECL signal/noise ratio [23] of 1.6 and an ECL signal/noise ratio [24] of 1.1. It also gave an ECL signal/noise ratio [25] of 1.1, an ECL signal/noise ratio [26] of 1.8 and an ECL signal/noise ratio [27] of 1.5. It also gave an ECL signal/noise ratio [28] of 1.2.

B2: Fab VH5-51_IGHD5-18*01>3_IGHJ4*01 G100K/G104T W33A & V3-4_IGLJ1*01 (Fab, V domains shown)
VH: EVQLVQSGAEVKKPGESLKISCKGSGYSFTSYAIGWVRQMPGKGLEWMGIIYPGDSDTRYSPSFQGQVTISADKSISTAYLQWSSLKASDTAMYYCARRKYSYTYDYFDYWGQGTLVTVSS
VL: QTVVTQEPSFSVSPGGTVTLTCGLSSGSVSTSYYPSWYQQTPGQAPRTLIYSTNTRSSGVPDRFSGSILGNKAALTITGAQADDESDYYCVLYMGSGISYVFGTGTKVTVL
notes: Fab made in E. coli; VH cloned into Plasmid A (CH1, His6 and Flag tags), lambda VL into Plasmid E (lambda CL); also called KT W33A
Work on B2 yielded an ECL signal [29] of 424, an ECL signal [30] of 761 and an ECL signal [31] of 561. It also gave an ECL signal [32] of 302 and an ECL signal [33] of 735.

B3: Fab VH5-51_IGHD5-18*01>3_IGHJ4*01 G100K/G104T/T58A & V3-4_IGLJ1*01 (Fab, V domains shown)
VH: EVQLVQSGAEVKKPGESLKISCKGSGYSFTSYWIGWVRQMPGKGLEWMGIIYPGDSDARYSPSFQGQVTISADKSISTAYLQWSSLKASDTAMYYCARRKYSYTYDYFDYWGQGTLVTVSS
VL: QTVVTQEPSFSVSPGGTVTLTCGLSSGSVSTSYYPSWYQQTPGQAPRTLIYSTNTRSSGVPDRFSGSILGNKAALTITGAQADDESDYYCVLYMGSGISYVFGTGTKVTVL
notes: Fab expressed in E. coli: VH joined to CH1 (Plasmid A, His6 and Flag tags), VL joined to lambda CL (Plasmid E); also called H:KT T58A
B3 was tested, and the “ELISA (Signal-Noise)” value [34] was 0.07 and the “ECL signal” value [35] was 12900.

B4: Fab VH5-51_IGHD5-18*01>3_IGHJ4*01 G100K/G104T/S56G & V3-4_IGLJ1*01 (Fab, V domains shown)
VH: EVQLVQSGAEVKKPGESLKISCKGSGYSFTSYWIGWVRQMPGKGLEWMGIIYPGDGDTRYSPSFQGQVTISADKSISTAYLQWSSLKASDTAMYYCARRKYSYTYDYFDYWGQGTLVTVSS
VL: QTVVTQEPSFSVSPGGTVTLTCGLSSGSVSTSYYPSWYQQTPGQAPRTLIYSTNTRSSGVPDRFSGSILGNKAALTITGAQADDESDYYCVLYMGSGISYVFGTGTKVTVL
notes: Fab expressed in E. coli: VH joined to CH1 (Plasmid A, His6 and Flag tags), VL joined to lambda CL (Plasmid E); also called H:KT S56G
With B4 the “ELISA (Signal-Noise)” value [34] was 0.05 and the “ECL signal” value [35] was 8430.
